These results are taken from patent US20260209320A1.

Test [1] addresses T1, Peptide 5 (human).
T1 sequence (peptide): QQQPPPPPPPPPPPQ
Kind of test: peptide microarray; Sp H; IgG 10 µg/ml.

Test [2] deals with T2, Peptide 23 (cyno).
T2 sequence (peptide): QQQQQQQQQQPPPPP
As to the kind of experiment: peptide microarray; Sp C2; IgG 10 µg/ml.

In test [3] the target is T3, Peptide 27 (cyno).
T3 sequence (peptide): PPPPPPPPPPPPQLP
Kind of test: peptide microarray; Sp C2; IgG 10 µg/ml.

For test [4], the target named is T4, Peptide 19 (cyno).
T4 sequence (peptide): PQAQPMLPQPQPPPP
Kind of test: peptide microarray; Sp C1; IgG 10 µg/ml.

In test [5] the target is T1, Peptide 5 (human). As to the kind of experiment: peptide microarray; Sp H; IgG 1 µg/ml.
In test [6] the target is T2, Peptide 23 (cyno). Kind of test: peptide microarray; Sp C2; IgG 1 µg/ml.
The target in test [7] is T3, Peptide 27 (cyno). As to the kind of experiment: peptide microarray; Sp C2; IgG 1 µg/ml.
Test [8] has as its target T5, Peptide 41 (mouse).
T5 sequence (peptide): PPQPPPQGQPPPPPP
Kind of test: peptide microarray; Sp M; IgG 10 µg/ml.

Test [9] concerns the target T5, Peptide 41 (mouse). Kind of test: peptide microarray; Sp M; IgG 1 µg/ml.
Test [10] has as its target T4, Peptide 19 (cyno). As to the kind of experiment: peptide microarray; Sp C1; IgG 1 µg/ml.
The target in test [11] is T6, Peptide 15 (human, cyno).
T6 sequence (peptide): QPQPPPPPPPPPPGP
As to the kind of experiment: peptide microarray; Sp H; IgG 10 µg/ml.

The target in test [12] is T7, Peptide 14 (human, cyno).
T7 sequence (peptide): PQPQPPPPPPPPPPG
As to the kind of experiment: peptide microarray; Sp H; IgG 10 µg/ml.

The target in test [13] is T8, Peptide 6 (human).
T8 sequence (peptide): QQPPPPPPPPPPPQL
As to the kind of experiment: peptide microarray; Sp H; IgG 10 µg/ml.

Test [14] has as its target T6, Peptide 15 (human, cyno). As to the kind of experiment: peptide microarray; Sp C2; IgG 10 µg/ml.
For test [15], the target named is T7, Peptide 14 (human, cyno). As to the kind of experiment: peptide microarray; Sp C2; IgG 10 µg/ml.
The target in test [16] is T9, Peptide 20 (cyno).
T9 sequence (peptide): QAQPMLPQPQPPPPP
Kind of test: peptide microarray; Sp C1; IgG 10 µg/ml.

For test [17], the target named is T6, Peptide 15 (human, cyno). Kind of test: peptide microarray; Sp H; IgG 1 µg/ml.
Test [18] addresses T7, Peptide 14 (human, cyno). Kind of test: peptide microarray; Sp H; IgG 1 µg/ml.
Test [19] concerns the target T8, Peptide 6 (human). As to the kind of experiment: peptide microarray; Sp H; IgG 1 µg/ml.
Test [20] deals with T9, Peptide 20 (cyno). As to the kind of experiment: peptide microarray; Sp C2 (second of two rows printed SEQ ID NO: 73); IgG 1 µg/ml.
Test [21] has as its target T6, Peptide 15 (human, cyno). As to the kind of experiment: peptide microarray; Sp C2; IgG 1 µg/ml.
The target of test [22] is T7, Peptide 14 (human, cyno). As to the kind of experiment: peptide microarray; Sp C2; IgG 1 µg/ml.
Test [23] has as its target T9, Peptide 20 (cyno). As to the kind of experiment: peptide microarray; Sp C2 (first of two rows printed SEQ ID NO: 73); IgG 1 µg/ml.
Test [24] addresses T9, Peptide 20 (cyno). Kind of test: peptide microarray; Sp C1; IgG 1 µg/ml.
Test [25] deals with T9, Peptide 20 (cyno). As to the kind of experiment: peptide microarray; Sp C2 (first of two rows printed SEQ ID NO: 73); IgG 10 µg/ml.
Test [26] concerns the target T9, Peptide 20 (cyno). Kind of test: peptide microarray; Sp C2 (second of two rows printed SEQ ID NO: 73); IgG 10 µg/ml.

B1: ATL_0005335 (antibody, V domains shown)
VH: EVQLVESGGGLVKPGGSLRLSCAASGFTFNKAWMNWVRQAPGKGLEWVGRIKSGIDGGTTDYAAPVQGRFTISRDDSKNTVYLQMNSLNTEDTAVYYCIPPPYYYYYGLDVWGQGTTVTVSS
VL: QSALTQPASVSGSPGQSITISCTGTSSDIGSYNLVSWYQQHPGNAPKPLIYEGSKRPSGVSARFSGSKSGNTASLTISGLQPEDEADYYCSSYAGFNTLVFGGGTKVTVL
On to B1, for which the corrected fluorescence intensity in [1] is 593; in test [2], 524; in [3] it was 604; in [4], 453; in test [5], 0; in test [6] it was 0. The corrected fluorescence intensity in [7] is 0; in [8], 0; in test [9], 256; in [10], 79.

B2: ATL_0005331 (antibody, V domains shown)
VH: EVQLVESGGGLVKPGGSLRLSCAASGFTFNKAWMNWVRQAPGKGLEWVGRIKSGIDGGTTDYAAPVQGRFTISRDDSKNTVYLQMNSLNTEDTAVYYCIPPPYYYYYGLDVWGQGTTVTVSS
VL: QSALTQPRSVSGSPGQSITISCTGTSSDVGSYNLVSWFQQHPGKAPKLIIYEVNKRPSGVPDRFSGSKSGNTASLTVSGLQAEDEADYYCGSYAGTNNVFGTGTKLTVL
For the molecule B2, the corrected fluorescence intensity in test [11] was 382; in test [1], 382; in test [12] it was 412; in test [13] it was 397; in test [14], 478; in [15], 464. Also, the corrected fluorescence intensity in test [3] was 321; in test [16] it was 504; in test [17] it was 134; in [5] it was 0; in test [18] it was 84; in test [19] it was 0. In addition, the corrected fluorescence intensity in test [20] worked out at 51.5; in test [21] it was 50; in test [22] it was 45.5; in test [7], 99.2; in test [23], 0; in [24], 178. Besides, the corrected fluorescence intensity in test [25] and in test [26] was 0 each time.
